Here are results for 2 molecules from patent CN114671948A.

In the assay the target is A型肉毒毒素 (botulinum toxin type A, sample solution of Example 4) (Clostridium botulinum) (UniProt P0DPI0).
Chain of UniProt P0DPI0 (P0DPI0 868-1296 limits assumed): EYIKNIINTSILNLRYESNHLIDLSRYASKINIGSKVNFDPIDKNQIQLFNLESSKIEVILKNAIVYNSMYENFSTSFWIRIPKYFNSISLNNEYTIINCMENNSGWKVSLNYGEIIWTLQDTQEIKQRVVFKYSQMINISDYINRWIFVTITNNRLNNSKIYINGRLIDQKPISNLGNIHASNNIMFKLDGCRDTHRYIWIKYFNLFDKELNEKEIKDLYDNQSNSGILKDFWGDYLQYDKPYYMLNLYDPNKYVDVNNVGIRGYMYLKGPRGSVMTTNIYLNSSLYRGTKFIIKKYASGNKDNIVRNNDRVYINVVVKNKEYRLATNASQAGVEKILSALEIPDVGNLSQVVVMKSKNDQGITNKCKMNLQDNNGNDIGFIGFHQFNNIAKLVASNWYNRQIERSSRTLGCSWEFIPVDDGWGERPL

B1: BoNT/AHc单克隆抗体细胞株1103 (monoclonal antibody of hybridoma cell line 1103) (antibody)
VH: LTMNFGLSWVFLLTLLHGFQCEVKLVKSGGGSVQPGGSLRLSCTTSGFTFSDSYMQWVRQPLGKRLEWITAGRHKANEYTTEWSASTRGRFIVSRDTSQSILNLQMNALRTEDPAISYCARDDCPHFILPRSYYFFDIWGAGTTVTVSSAKTTPPSVYPLAPVCGG
VL: DIVLTQSPASLAVSLGQRATISYRPSKSVSTSRYSYMHWNQQKPGQPPRLLIYLESNLASGVPARFSGSGSGTDFTLNIHPVEEEDAATYYCQLITELTRSEGGPSWKYNGLMLHQLYP
The molecule B1 yielded a 检测限 (detection limit of the sandwich test) of 20 ng/mL.

B2: BoNT/AHc单克隆抗体细胞株401 (monoclonal antibody of hybridoma cell line 401) (antibody)
VH: LTMDFGLSLVFLVLTLKGVKCEVQLVESGGGLVKPGGSLKLSCAASGFAFSTSDMSWVRQTPEKRLEWVTYITSGAGNTNYPDTVKGRFTISRDNAKNTLYVQMSSLKSEDTAMYYCARQSRWSLALDYWGQGTLVTVSAAKTTPPSVYPLAPVCGG
VL: LTMETDTLLLWVLLLWVPGSTGDIVLTQSPASLAVSLGQRATISYRGSNSVSISAYSYMHWNQQKPGQPPRLLIYLVWNQESGVPARFSGSGSGTDFTLNIHPVEEEDAATYYCQHITELTRSEGGPSWKSNGLMLHQLYPSPTIQ
Turning to B2, the 检测限 (detection limit of the sandwich test) was found to be 20 ng/mL.
